From paper PMC12363564, “Modulation of the PTPRS proteoglycan switch by antibodies binding to the membrane-proximal fibronectin-type III domain” (The Journal of Biological Chemistry, 2025)

Biological target: T1, C-terminally 6xHis tagged mouse PTPRS (mPTPRS) ECD (Mus musculus, UniProt B0V2N1)
T1 construct: also called mPTPRS ectodomain; PTPRS ectodomain; source: HEK293T, transiently transfected, supernatant; purified (Ni-NTA, HiTrap heparin); not shown: His6, C-terminal, kept
Test: BLI; data not shown; 9H5 on C-terminally 6xHis tagged mPTPRS ECD immobilised on an anti-6xHis probe
Conditions: both partners purified

T1 sequence (B0V2N1 30-1257): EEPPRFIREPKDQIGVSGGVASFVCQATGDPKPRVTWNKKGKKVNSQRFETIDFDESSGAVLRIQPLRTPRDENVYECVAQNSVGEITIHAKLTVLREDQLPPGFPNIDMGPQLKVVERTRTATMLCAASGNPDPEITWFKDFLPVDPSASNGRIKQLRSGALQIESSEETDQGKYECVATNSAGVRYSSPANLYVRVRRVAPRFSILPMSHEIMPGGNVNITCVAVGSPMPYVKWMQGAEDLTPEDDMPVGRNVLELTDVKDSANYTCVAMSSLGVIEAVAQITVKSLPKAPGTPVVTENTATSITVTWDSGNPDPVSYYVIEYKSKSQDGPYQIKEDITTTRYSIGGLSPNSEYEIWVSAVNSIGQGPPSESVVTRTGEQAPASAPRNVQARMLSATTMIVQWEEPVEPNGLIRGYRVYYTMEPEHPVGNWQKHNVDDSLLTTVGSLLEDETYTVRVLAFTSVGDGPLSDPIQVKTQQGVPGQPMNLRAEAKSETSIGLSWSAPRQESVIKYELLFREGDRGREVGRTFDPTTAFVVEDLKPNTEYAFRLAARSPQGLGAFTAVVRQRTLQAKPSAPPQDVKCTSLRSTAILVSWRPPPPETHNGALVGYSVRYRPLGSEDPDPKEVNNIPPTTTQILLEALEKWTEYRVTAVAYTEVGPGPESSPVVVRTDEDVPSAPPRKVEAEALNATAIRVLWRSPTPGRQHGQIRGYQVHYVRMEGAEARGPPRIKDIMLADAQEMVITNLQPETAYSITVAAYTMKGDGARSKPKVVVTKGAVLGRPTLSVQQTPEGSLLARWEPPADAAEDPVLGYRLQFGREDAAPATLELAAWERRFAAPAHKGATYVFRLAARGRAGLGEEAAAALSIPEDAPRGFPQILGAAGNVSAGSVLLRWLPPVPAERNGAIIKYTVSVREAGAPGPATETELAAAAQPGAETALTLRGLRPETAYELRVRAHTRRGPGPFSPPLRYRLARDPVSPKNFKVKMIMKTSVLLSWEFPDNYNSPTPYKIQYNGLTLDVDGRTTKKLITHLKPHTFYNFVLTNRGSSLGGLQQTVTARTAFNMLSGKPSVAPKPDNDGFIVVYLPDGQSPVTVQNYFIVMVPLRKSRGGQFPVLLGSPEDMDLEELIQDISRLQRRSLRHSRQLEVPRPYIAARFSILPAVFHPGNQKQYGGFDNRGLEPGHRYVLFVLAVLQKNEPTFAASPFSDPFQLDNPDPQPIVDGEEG

- binding result: no binding
B1: 9H5 (mouse monoclonal antibody, IgG1/κ) (antibody, V domains shown)
VH: QVQLVETGGGLVRPGNSLKLSCVTSGFTFSNYRMHWLRQPPGKRLEWIAVITVKSDNYGANYAESVKGRFTISRDDSKSSVYLQMNRLREEDTATYYCSRSVYYGYVLAFDYWGQGTTLTVSS
VL: DIQMTQTTSSLSASLGDRVTISCRASQDISNYLNWYQQKPDGTVKLLIYYTSRLHSGVPSRFSGSGSGTDYSLTISNLEQEDIATYFCQQGNTLPWTFGGGTKLEIK
notes: VH of 9H5; constant region of the mouse IgG1 heavy chain; VL of 9H5; constant region of the mouse κ light chain; IgG1/κ; source: production contracted to Viva Biotech
